Experimental data: US20240368288A1 (HEMOGENYX PHARMACEUTICALS, published 2024)
Substitutions are numbered along the chain they refer to. Several values for one entry are separate records, joined by “and”; a condition that tells them apart may be missing. Equal entries are not always repeated.

T1: human FLT3 (Fms Related Receptor Tyrosine Kinase 3) expressed on cells (human, UniProt P36888 27-993)
T1 construct: whole, on cells; Same entry used for all cell lines; also called FLK2
T1 sequence (looked up): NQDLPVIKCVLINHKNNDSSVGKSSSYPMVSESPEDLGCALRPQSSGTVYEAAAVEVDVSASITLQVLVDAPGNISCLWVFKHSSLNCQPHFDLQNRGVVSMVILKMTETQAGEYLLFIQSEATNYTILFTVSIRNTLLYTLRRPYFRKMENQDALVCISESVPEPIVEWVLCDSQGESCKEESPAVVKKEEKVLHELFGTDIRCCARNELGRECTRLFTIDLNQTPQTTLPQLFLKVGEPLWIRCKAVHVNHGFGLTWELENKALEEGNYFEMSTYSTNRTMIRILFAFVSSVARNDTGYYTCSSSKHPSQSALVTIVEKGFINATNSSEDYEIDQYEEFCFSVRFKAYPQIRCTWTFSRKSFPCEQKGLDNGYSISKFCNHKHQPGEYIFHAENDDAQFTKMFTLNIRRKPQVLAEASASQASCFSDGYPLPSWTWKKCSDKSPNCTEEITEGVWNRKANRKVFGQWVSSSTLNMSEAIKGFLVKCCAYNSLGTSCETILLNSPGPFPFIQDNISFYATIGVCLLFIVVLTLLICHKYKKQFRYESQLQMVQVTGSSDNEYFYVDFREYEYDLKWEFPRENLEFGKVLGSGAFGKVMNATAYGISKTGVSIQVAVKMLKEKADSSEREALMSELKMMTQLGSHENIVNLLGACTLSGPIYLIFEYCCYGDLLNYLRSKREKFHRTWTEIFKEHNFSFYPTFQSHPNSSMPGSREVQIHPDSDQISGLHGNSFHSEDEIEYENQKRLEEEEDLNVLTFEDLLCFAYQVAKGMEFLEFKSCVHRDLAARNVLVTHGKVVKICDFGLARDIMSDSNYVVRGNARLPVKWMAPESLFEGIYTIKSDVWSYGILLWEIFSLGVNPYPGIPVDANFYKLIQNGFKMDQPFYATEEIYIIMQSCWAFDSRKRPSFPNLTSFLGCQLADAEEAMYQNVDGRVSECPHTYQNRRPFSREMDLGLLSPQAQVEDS

B1: chimeric monoclonal anti-FLT3 antibody 118BA (antibody, V domains shown)
VH: QVTLKESGPGILQPSQTLSLTCSFSGFSLSTSTMGVGWIRQPSGKGLEWLLHILWNDSKYYNPALKSRLTISKDTYNKQVFLKIANVDTADTATYYCARIVYYSTYVGYFDVWGAGTTVTVSS
VL: DIQMTQSPSSLSASLGERVSLTCRASQEISGYLSWLQQKPDGTIKRLIYAASTLHSGVPKRFSGSRSGSDYSLTISRLESEDVADYYCLQYASYPFTFGSGTKLEIK
B2: CD3xFLT3 bispecific antibody 118BA #3C (bispecific antibody, human IgG1, lambda)
heavy: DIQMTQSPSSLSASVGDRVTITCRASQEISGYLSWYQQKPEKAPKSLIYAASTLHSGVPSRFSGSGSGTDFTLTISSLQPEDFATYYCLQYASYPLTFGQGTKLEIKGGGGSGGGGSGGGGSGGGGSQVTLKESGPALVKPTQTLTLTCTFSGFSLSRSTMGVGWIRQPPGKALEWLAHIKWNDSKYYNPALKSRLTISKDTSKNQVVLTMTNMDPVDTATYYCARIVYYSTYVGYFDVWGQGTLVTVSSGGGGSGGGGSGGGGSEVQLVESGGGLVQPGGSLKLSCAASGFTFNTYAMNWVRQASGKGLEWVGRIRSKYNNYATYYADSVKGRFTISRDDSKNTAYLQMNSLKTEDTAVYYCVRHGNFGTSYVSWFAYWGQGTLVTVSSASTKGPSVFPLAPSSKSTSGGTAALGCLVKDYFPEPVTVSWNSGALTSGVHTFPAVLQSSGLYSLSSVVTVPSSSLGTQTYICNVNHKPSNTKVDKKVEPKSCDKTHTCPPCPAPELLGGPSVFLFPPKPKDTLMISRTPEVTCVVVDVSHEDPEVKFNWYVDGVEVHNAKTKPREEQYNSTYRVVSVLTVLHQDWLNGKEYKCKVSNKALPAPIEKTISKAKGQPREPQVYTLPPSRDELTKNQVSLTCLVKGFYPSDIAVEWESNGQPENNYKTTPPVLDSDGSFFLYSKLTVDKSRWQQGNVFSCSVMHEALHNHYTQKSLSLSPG
light: QAVVTQEPSFSVSPGGTVTLTCGSSTGAVTTSNYANWVQQTPGQAFRGLIGGTNKRSSGVPDRFSGSLLGDKAALTITGAQADDESDYYCALWFSNHWVFGGGTKLTVLGGQPKAAPSVTLFPPSSEELQANKATLVCLISDFYPGAVTVAWKADSSPVKAGVETTTPSKQSNNKYAASSYLSLTPEQWKSHRSYSCQVTHEGSTVEKTVAPTECS
B3: CD3xFLT3 bispecific antibody 118BA #3A (bispecific antibody, human IgG1, lambda)
heavy: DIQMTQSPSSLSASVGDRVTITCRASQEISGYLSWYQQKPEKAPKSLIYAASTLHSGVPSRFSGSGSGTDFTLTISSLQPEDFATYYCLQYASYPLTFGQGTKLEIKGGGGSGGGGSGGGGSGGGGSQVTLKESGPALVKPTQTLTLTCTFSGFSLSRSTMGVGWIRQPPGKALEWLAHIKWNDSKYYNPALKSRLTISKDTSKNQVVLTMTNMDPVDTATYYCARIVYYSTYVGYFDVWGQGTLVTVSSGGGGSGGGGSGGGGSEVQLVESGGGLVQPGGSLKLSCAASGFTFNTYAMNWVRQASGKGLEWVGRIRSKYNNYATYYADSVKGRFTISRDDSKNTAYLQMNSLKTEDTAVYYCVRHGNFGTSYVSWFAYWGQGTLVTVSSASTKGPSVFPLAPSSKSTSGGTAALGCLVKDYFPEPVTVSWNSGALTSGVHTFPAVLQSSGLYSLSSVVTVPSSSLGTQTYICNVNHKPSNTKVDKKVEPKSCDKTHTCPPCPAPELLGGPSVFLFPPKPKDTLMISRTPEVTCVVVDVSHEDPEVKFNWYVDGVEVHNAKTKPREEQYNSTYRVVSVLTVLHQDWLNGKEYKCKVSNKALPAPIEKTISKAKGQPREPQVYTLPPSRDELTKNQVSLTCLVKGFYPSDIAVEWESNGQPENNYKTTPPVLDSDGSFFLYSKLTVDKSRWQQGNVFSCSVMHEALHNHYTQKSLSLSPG
light: B2 light with F94Y, H97L
B4: CD3xFLT3 bispecific antibody 118BA #3a1 (bispecific antibody, human IgG1, lambda)
heavy: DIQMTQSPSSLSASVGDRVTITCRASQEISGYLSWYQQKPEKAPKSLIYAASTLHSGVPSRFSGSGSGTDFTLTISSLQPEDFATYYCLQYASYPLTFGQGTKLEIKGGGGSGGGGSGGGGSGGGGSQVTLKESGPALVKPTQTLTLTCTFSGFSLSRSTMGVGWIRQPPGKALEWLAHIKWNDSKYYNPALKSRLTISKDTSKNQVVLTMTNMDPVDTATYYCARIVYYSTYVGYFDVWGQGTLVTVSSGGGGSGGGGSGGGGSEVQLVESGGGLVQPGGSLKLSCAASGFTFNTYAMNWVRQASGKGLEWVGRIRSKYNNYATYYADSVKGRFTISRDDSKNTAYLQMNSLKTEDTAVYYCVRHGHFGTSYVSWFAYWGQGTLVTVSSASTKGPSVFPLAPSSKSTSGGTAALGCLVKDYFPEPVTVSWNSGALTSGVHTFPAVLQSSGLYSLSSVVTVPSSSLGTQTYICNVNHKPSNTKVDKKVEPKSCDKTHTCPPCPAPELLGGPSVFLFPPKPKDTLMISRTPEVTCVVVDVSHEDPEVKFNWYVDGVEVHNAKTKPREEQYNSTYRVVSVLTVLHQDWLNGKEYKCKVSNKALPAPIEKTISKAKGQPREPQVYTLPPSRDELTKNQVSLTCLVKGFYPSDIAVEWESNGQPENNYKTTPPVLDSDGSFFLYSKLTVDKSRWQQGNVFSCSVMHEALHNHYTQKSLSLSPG
light: B2 light
B5: CD3xFLT3 bispecific antibody 118BA #3B (bispecific antibody, human IgG1, lambda)
heavy: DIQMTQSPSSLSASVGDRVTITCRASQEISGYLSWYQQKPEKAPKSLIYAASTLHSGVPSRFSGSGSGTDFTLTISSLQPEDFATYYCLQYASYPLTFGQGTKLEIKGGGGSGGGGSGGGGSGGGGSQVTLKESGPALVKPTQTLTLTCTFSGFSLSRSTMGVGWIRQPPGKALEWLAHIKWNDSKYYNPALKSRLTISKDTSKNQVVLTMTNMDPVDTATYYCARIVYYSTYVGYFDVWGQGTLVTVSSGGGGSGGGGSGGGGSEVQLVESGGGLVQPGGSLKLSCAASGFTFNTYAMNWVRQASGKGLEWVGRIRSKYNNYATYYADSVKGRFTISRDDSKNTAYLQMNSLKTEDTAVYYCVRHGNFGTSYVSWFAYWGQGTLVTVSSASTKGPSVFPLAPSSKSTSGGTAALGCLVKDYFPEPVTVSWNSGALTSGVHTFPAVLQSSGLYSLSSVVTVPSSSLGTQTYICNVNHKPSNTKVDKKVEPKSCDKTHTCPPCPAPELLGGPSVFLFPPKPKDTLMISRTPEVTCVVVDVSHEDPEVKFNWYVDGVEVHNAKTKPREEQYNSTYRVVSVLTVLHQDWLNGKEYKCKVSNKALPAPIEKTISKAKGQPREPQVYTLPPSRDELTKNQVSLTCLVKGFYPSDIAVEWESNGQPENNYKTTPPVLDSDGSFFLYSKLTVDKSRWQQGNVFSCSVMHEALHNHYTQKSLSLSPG
light: B2 light with S57V
B6: chimeric monoclonal anti-CD3 IgG SP34 clone (antibody, V domains shown)
VH: EVQLVESGGGLVQPKGSLKLSCAASGFTFNTYAMNWVRQAPGKGLEWVARIRSKYNNYATYYADSVKDRFTISRDDSQSILYLQMNNLKTEDTAMYYCVRHGNFGNSYVSWFAYWGQGTLVTVSS
VL: QAVVTQESALTTSPGETVTLTCRSSTGAVTTSNYANWVQEKPDHLFTGLIGGTNKRAPGVPARFSGSLIGDKAALTITGAQTEDEAIYFCALWYSNLWVFGGGTKLTVL
B7: humanized SP34 variant 2 (antibody, human IgG1, V domains shown)
VH: B6 VH with K15G, P41S, A49G, D68G, Q78K, I80T, L81A, N87S, M95V
VL: QAVVTQEPSLTVSPGGTVTLTCGSSTGAVTTSNYANWVQQKPGQAFRTLIGGTNKKHPWTPARFSGSLLGGKAALTLSGAQPEDEAEYYCALWYSNLWVFGGGTKLTVLG
notes: also called humSP34-v2; humanized anti-CD3 SP34 variant 2
B8: humanized SP34 variant 6 (antibody, human IgG1, V domains shown)
VH: B6 VH with K15G, P41S, A49G, D68G, Q78K, S79N, I80T, L81A, N87S, M95V
VL: QAVVTQEPSFSVSPGGTVTLTCGSSTGAVTTSNYANWVQQTPGQAFRGLIGGTNKRSSGVPDRFSGSLLGDKAALTITGAQADDESDYYCALWYSNLWVFGGGTKLTVLG
notes: also called humSP34-v6; humanized anti-CD3 SP34 variant 6
B9: humanized 118BA variant 1 (antibody, V domains shown)
VH: QVTLKESGPTLVKPTQTLTLTCTFSGFSLSTSTMGVGWIRQPPGKALEWLAHILWNDSKRYNPSLKSRLTITKDTSKKQVVLTMTNMDPVDTATYYCARIVYYSTYVGYFDVWGQGTTVTVSS
VL: DIQMTQSPSSLSASVGDRVTITCRASQEISGYLSWLQQKPGKAIKRLIYAASTLQSGVPSRFSGSRSGSDYTLTISSLQPEDFATYYCLQYASYPFTFGQGTKLEIK
notes: detected with anti-human IgG Fc; also called 18BA-v1; 1-18BA-v1
B10: humanized 118BA variant 5 (antibody, V domains shown)
VH: B9 VH with V2I, S58D, N62G
VL: EIVMTQSPGTLSLSPGERATLSCRASQEISGYLSWLQQKPGQAIRRLIYAASTRATGIPDRFSGSRSGSDYTLTISRLEPEDFAVYYCLQYASYPFTFGQGTKLEIK
notes: detected with anti-human IgG Fc; also called 18BA-v5

Tests used:
[1] = biological target: T1, human FLT3 (Fms Related Receptor …); assay: flow cytometry, chimeric antibody on FLT3-expressing REH cells
[2] = biological target: T1, human FLT3 (Fms Related Receptor …); assay: flow cytometry on FLT3+ REH cells
Description: (§1) Cells were washed five times with flow buffer and stained with anti-human IgG lambda antibody conjugated to FITC (Southern Biotech 2070-02). Cells were stained with 7-AAD (7-AAD Viability Staining Solution, Biolegend 420404) followed by flow cytometry analysis.

[3] = biological target: T1, human FLT3 (Fms Related Receptor …); assay: cell-based or functional assay
[4] = biological target: T2, human CD3 on the surface of T cells / Jurkat cells (human, UniProt P07766 23-207; P09693 23-182; P04234 22-171); assay: flow cytometry on CD3+ human T cells
T2 construct: whole, on cells
Description: as §1

[5] = biological target: T3, Recombinant Human CD3 epsilon Fc Chimera Protein (R&D, no. 9850-CD-050) (human, UniProt P07766 23-126); assay: ELISA, plate coated with recombinant human CD3 epsilon Fc chimera
T3 construct: Bought reagent; Fc part of the bought chimera not given
Method: The plate was washed with wash buffer (PBS (Caisson Labs, no. PBL06)+0.05% Tween20 (ThermoFisher, no. 28320)) The plate was blocked with blocking buffer (PBS (Caisson Labs, no. PBL06)+1% (w/v) BSA (Rockland, no. BSA-50)+0.05% Tween20 (ThermoFisher, no 28320)) for two hours at room temperature (RT). Plate was washed twice with wash buffer. […] Plate was washed 4× with wash buffer. Plate was incubated with 100 μL per well of 1:200 goat anti-human lambda-HRP secondary antibody (SouthernBiotech, no. 2070-05) for one hour at RT. Plate was washed 4× with wash buffer. Plate was incubated with 100 μL per well of TMB Substrate (ThermoFisher Cat #34029) for 20 minutes protected from light. Stop solution (2N H₂SO₄) was added to each well. Absorbance of wells was recorded at 450 nm on an Envision plate reader (PerkinElmer). […] Variable slope (four parameters) curve was fit to the data and EC50 was used to compare binding affinities.

[6] = biological target: T2, human CD3 on the surface of T cells / …; assay: flow cytometry on primary human pan T cells from cord blood
[7] = biological target: T2, human CD3 on the surface of T cells / …; assay: flow cytometry on CD3-expressing Jurkat cells
Method: The mouse heavy and light chain variable regions of SP34 clone were humanized and two humanized variants were tested for their binding affinities to CD3 in Jurkat cells (ATCC) expressing high levels of CD3. Jurkat cells were stained with various concentrations of humanized SP34 variants 2 and 6 (variant 2 VH and VL are SEQ ID NOs: 67 and 68, respectively; variant 6 VH and VL are SEQ ID NOs: 69 and 70, respectively) antibodies prepared in PBS+2% BCS+2 mM EDTA (flow buffer). Cells were washed five times with flow buffer and stained with anti-human IgG Fc antibody conjugated to Alexa Flour 488 (Jackson Immunoresearch Laboratories, 109-095-008). Cells were stained with 7-AAD (7-AAD Viability Staining Solution, Biolegend 420404) followed by flow cytometry analysis.

[8] = biological target: T1, human FLT3 (Fms Related Receptor …); assay: flow cytometry on FLT3-expressing REH cells
Description: Cells were washed five times with flow buffer and stained with anti-human IgG Fc antibody conjugated to Alexa Fluor 488 (Jackson Immunoresearch Laboratories, 109-545-008). Cells were stained with 7-AAD (7-AAD Viability Staining Solution, Biolegend 420404) followed by flow cytometry analysis. […] The antibodies used are as described in Example 1.

T2 sequence (P07766 23-207, chain 1 of 3): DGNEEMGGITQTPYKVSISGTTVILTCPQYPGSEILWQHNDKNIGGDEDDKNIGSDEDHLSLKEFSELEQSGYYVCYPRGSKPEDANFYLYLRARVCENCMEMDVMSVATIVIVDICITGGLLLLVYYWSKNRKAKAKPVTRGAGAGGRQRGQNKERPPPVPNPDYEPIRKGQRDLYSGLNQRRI
T2 sequence (P09693 23-182, chain 2 of 3): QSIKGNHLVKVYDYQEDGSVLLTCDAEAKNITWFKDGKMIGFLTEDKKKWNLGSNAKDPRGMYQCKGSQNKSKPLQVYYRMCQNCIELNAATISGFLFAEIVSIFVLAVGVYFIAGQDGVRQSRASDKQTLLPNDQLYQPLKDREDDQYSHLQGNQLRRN
T2 sequence (P04234 22-171, chain 3 of 3): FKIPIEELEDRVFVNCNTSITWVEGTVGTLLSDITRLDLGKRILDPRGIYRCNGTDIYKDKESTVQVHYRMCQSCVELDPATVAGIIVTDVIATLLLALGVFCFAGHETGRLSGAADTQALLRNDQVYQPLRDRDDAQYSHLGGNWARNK
T3 sequence (P07766 23-126, change not shown): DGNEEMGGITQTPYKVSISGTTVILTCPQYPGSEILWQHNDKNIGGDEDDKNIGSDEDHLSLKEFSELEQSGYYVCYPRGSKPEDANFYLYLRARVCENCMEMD

Row | Binder | EC50 [2] [nM] | EC50 of cytotoxicity against REH cells [3] [nM] | EC50 [4] [nM] | further results
1 | B1 | – | – | – | EC50 [1]: 0.77 nM
2 | B2 | 0.9 | 0.013 | 32 | –
3 | B3 | 1.18 | 0.013 | 15.5 | –
4 | B4 | 1.17 | 0.33 | – | EC50 [5]: 0.0331 µg/mL and 0.16 nM
5 | B5 | 1.23 | 0.017 | 13.6 | –
6 | B6 | – | – | – | EC50 [6]: 3.2 nM
7 | B7 | – | – | – | EC50 [7]: 2.38 nM
8 | B8 | – | – | – | EC50 [7]: 3.2 nM
9 | B9 | – | – | – | EC50 [8]: 0.4 nM
10 | B10 | – | – | – | EC50 [8]: 0.72 nM
